Reference: the supplement of paper PMC10065799, “High-throughput profiling of sequence recognition by tyrosine kinases and SH2 domains using bacterial peptide display” (eLife, 2023)

Legend:
[1] = biological target: Grb2 SH2 (UniProt P62993); assay: SH2 binding enrichment of the phosphorylated peptide, bacterial display (enrichment ratio); higher = better substrate or ligand; peptides without Tyr show the background
[2] = biological target: SHP2-C SH2; assay: as above
[3] = biological target: c-Src SH2; assay: as above
[4] = tested on: c-Abl (mouse); assay: phosphorylation enrichment, bacterial display (enrichment ratio); higher = better substrate or ligand; peptides without Tyr show the background
[5] = biological target: Fes (UniProt P07332); assay: as above
[6] = biological target: Fyn (UniProt P06241); assay: as above
[7] = tested on: c-Src; assay: as above
[8] = tested on: Fer (mouse); assay: as above
[9] = biological target: Jak2 (UniProt O60674); assay: as above
[10] = biological target: MERTK (UniProt Q12866); assay: as above
[11] = biological target: EPHB2 (UniProt P29323); assay: as above
[12] = biological target: Hck (UniProt P08631); assay: as above
[13] = biological target: EPHB1 (UniProt P54762); assay: as above
[14] = biological target: FGFR1 (UniProt P11362); assay: as above
[15] = biological target: FGFR3 (UniProt P22607); assay: as above
[16] = tested on: AncSZ; assay: as above
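For SH2 binding enrichment of the phosphorylated peptide, bacterial display in this document: peptide library displayed on the E. coli surface as eCPX fusions, selected cells deep-sequenced, score is each peptide's frequency after selection divided by its frequency in the input.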
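For phosphorylation enrichment, bacterial display in this document: 11-residue human phosphosite peptides and single-mutation variants displayed on the E. coli surface, counted by deep sequencing, each peptide's frequency after selection divided by its frequency in the unselected input library; frequency after pTyr selection over input frequency; kinase dosed for 20-30% of maximal phosphorylation in three min.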

Sequence of Fyn (P06241 whole entry, looked up): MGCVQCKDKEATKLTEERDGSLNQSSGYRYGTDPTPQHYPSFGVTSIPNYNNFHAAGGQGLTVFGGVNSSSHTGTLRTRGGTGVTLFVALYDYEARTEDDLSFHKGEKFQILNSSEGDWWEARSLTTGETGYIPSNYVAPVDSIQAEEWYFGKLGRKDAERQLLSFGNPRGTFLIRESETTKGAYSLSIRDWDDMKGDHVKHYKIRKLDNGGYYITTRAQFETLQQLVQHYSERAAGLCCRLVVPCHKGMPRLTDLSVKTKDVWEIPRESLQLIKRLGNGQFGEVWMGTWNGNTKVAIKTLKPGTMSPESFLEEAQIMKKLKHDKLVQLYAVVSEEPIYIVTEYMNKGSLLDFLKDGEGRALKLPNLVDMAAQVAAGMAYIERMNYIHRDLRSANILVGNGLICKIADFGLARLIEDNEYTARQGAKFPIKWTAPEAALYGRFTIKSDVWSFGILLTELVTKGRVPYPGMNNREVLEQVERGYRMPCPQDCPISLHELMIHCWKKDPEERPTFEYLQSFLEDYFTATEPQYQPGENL
Sequence of Fes (P07332 whole entry, looked up): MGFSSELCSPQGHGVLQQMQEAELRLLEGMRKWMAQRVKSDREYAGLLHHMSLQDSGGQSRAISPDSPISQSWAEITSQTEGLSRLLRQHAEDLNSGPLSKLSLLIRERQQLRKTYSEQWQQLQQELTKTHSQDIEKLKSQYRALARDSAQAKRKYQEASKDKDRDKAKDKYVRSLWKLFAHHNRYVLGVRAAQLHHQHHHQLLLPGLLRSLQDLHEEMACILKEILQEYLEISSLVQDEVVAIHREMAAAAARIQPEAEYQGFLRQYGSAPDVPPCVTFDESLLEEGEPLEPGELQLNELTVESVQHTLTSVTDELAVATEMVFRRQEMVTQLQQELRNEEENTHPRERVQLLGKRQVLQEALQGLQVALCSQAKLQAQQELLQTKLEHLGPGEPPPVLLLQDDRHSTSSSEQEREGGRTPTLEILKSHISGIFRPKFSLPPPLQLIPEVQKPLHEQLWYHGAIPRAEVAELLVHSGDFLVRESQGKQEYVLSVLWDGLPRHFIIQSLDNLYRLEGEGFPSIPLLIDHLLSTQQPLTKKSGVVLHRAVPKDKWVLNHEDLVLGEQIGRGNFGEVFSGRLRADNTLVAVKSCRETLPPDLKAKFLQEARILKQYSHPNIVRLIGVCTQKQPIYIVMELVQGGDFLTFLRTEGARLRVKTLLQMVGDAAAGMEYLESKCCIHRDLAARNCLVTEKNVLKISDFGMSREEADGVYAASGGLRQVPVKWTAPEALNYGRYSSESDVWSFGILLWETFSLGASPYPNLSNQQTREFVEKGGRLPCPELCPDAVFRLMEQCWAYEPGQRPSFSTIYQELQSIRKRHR
Sequence of FGFR1 (P11362 whole entry, looked up): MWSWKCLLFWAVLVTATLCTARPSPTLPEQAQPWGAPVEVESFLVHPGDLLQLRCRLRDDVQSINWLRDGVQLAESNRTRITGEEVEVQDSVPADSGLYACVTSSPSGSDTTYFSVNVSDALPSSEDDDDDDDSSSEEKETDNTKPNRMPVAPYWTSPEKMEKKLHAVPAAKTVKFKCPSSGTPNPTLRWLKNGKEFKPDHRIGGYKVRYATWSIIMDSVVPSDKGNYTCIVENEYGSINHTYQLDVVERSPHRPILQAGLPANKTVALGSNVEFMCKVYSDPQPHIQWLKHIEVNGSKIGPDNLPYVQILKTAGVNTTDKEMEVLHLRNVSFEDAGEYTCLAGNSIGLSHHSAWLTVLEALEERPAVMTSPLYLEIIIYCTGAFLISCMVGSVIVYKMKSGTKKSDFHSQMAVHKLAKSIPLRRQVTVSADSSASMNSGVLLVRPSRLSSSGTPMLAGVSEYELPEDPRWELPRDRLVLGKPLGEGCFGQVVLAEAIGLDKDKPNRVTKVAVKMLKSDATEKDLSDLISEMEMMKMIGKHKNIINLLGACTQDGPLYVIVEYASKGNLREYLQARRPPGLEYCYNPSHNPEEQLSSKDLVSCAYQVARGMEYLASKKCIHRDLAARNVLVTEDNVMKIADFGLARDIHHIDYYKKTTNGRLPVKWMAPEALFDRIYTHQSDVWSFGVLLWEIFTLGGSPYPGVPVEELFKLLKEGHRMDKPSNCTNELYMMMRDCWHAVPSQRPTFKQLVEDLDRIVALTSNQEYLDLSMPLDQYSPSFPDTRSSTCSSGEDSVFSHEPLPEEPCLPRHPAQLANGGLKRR
Sequence of FGFR3 (P22607 whole entry, looked up): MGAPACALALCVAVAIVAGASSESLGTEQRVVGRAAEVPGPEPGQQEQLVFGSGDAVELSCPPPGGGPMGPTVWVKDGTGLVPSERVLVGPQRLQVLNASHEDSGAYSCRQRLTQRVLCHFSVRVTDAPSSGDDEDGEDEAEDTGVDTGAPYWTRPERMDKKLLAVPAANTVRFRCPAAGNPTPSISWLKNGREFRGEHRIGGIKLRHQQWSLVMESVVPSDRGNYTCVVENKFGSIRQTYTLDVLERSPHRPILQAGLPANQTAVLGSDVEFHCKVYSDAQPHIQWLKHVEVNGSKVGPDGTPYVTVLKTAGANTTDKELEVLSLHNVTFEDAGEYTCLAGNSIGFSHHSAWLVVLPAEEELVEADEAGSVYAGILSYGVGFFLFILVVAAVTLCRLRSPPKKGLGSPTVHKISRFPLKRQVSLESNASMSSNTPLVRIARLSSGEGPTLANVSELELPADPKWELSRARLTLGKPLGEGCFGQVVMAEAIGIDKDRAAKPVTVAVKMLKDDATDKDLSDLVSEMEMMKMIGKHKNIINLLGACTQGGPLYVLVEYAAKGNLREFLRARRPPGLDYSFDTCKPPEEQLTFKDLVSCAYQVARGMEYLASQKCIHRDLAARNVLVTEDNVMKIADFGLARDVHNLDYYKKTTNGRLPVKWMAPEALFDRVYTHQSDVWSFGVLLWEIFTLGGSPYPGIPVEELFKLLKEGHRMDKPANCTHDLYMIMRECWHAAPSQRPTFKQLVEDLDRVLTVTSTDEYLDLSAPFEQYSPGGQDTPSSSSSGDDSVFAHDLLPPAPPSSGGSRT
Sequence of Jak2 (O60674 whole entry, looked up): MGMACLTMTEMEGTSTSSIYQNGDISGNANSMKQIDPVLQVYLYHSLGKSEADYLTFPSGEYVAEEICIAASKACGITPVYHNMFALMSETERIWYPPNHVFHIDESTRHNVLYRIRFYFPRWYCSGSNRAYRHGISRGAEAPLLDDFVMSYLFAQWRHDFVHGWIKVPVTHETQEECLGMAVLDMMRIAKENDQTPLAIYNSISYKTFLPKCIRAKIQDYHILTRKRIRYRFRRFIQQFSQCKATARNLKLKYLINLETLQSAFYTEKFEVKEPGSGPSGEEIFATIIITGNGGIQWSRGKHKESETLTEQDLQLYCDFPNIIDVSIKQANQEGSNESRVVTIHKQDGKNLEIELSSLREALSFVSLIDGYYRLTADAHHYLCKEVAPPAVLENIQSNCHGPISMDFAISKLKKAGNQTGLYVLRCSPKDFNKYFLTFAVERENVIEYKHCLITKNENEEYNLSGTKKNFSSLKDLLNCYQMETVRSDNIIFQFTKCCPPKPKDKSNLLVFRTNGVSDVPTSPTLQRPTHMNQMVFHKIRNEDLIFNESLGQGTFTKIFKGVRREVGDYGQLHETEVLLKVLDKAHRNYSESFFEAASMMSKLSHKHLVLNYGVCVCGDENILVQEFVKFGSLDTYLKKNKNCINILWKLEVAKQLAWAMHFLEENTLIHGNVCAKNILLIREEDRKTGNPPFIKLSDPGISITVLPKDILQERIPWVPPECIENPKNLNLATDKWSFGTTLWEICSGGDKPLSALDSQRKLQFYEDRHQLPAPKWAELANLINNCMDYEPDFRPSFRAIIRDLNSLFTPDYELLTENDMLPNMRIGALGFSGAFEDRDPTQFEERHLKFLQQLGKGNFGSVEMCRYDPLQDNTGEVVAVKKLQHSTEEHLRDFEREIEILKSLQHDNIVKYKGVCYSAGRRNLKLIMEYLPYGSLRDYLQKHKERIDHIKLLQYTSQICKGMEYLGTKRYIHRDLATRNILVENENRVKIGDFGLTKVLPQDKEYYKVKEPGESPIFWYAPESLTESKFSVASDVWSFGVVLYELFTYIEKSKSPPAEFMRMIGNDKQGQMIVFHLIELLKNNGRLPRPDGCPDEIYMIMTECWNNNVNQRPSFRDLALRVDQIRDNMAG
Sequence of Hck (P08631 whole entry, looked up): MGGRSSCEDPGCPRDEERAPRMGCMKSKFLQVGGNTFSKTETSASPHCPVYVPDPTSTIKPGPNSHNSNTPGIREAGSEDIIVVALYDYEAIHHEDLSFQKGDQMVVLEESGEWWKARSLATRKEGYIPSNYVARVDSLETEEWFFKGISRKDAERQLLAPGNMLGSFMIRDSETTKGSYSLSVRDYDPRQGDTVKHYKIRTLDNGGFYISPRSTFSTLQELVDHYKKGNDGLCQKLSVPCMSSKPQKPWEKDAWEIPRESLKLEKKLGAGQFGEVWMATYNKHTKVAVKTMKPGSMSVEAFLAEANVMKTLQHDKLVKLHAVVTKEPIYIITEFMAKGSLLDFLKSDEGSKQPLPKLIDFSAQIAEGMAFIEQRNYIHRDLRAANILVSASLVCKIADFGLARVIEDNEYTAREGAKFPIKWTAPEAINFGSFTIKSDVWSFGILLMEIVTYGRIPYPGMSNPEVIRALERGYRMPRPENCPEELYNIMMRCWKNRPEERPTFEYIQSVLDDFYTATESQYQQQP

Sequence | SH2 binding enrichment [1] | SH2 binding enrichment [2] | SH2 binding enrichment [3] | phosphorylation enrichment [4] | phosphorylation enrichment [5] | phosphorylation enrichment [6] | phosphorylation enrichment [7] | phosphorylation enrichment [8] | phosphorylation enrichment [9] | phosphorylation enrichment [10] | phosphorylation enrichment [11] | phosphorylation enrichment [12] | phosphorylation enrichment [13] | phosphorylation enrichment [14] | phosphorylation enrichment [15] | phosphorylation enrichment [16]
RRMLQYLTVND [PPFIBP2_Y663] | 0.994 | 0.976 | 0.51 | 0.691 | 0.862 | 0.501 | 0.486 | 0.456 | 0.882 | 0.475 | 0.584 | 0.686 | 0.417 | 0.63 | 0.632 | 0.803
EESSHYSTEKE [ADAR_Y587] | 0.955 | 0.646 | 0.549 | 0.604 | 1.47 | 0.633 | 0.427 | 0.531 | 0.658 | 0.509 | 0.493 | 0.589 | 0.621 | 0.597 | 0.578 | 1.14
KFLVGYEMLAQ [GALT_Y339_M336L] | 1.01 | 1.06 | 2.72 | 0.578 | 0.977 | 0.386 | 0.378 | 0.395 | 0.747 | 0.323 | 0.434 | 0.416 | 0.434 | 0.408 | 0.661 | 0.701
AIFEGYALPHA [ACTC1_Y171_P166A_YF] | 0.932 | 0.518 | 5.11 | 1.2 | 0.801 | 0.472 | 0.414 | 0.605 | 0.539 | 0.726 | 0.401 | 0.43 | 0.452 | 0.549 | 0.535 | 0.732
ETKEDYEKILV [ANXA1_Y335_G333E] | 0.972 | 0.905 | 0.594 | 0.779 | 1.23 | 0.501 | 0.484 | 0.598 | 1.01 | 0.53 | 0.598 | 0.572 | 0.616 | 0.509 | 0.743 | 1.09
LSDVIYVILRK [PMP22_Y153_G150D] | 1.17 | 1.31 | 0.58 | 0.617 | 1.28 | 0.414 | 0.38 | 0.398 | 1.23 | 0.278 | 0.55 | 0.391 | 0.57 | 0.456 | 0.684 | 1.27
GFSDPYVKASL [SYT3_Y470] | 0.796 | 0.801 | 0.452 | 0.544 | 0.722 | 0.374 | 0.393 | 0.488 | 0.646 | 0.391 | 0.436 | 0.38 | 0.329 | 0.444 | 0.4 | 0.568
LSIDRYHAIVF [NPSR1_Y147_YF] | 0.934 | 0.691 | 1.44 | 0.941 | 1.3 | 0.833 | 0.976 | 0.444 | 2.75 | 1.81 | 1.04 | 0.861 | 0.753 | 1.22 | 1.44 | 1.56
PVGDAYKKKGL [NMNAT1_Y55] | 0.831 | 0.673 | 0.626 | 0.574 | 0.976 | 0.522 | 0.493 | 0.609 | 0.787 | 0.874 | 0.924 | 0.559 | 0.501 | 0.651 | 0.624 | 0.677
FSCLPYRRLAY [SLC52A2_Y305_G306R] | 0.942 | 0.653 | 0.448 | 1.22 | 0.671 | 0.691 | 0.766 | 0.5 | 0.837 | 0.621 | 0.547 | 0.663 | 0.613 | 0.656 | 0.758 | 0.95
LLNPSYNLPLD [TOM1L1_Y109_R108S] | 0.685 | 0.618 | 0.833 | 0.855 | 1.45 | 0.979 | 0.523 | 0.808 | 0.908 | 0.854 | 0.711 | 1.07 | 1.26 | 0.595 | 1.14 | 1.22
YGAHNHHPLPV [OAT_Y55_Y55H] | 0.963 | 1.05 | 0.919 | 0.671 | 0.696 | 0.415 | 0.506 | 0.693 | 0.62 | 0.516 | 0.38 | 0.458 | 0.413 | 0.408 | 0.473 | 0.538
KVKGEYDMTVP [AHNAK_Y964] | 0.756 | 0.692 | 0.499 | 0.372 | 0.744 | 0.434 | 0.414 | 0.637 | 0.543 | 0.463 | 0.36 | 0.443 | 0.491 | 0.469 | 0.607 | 0.669
ADARMYGDLPW [PLP1_Y207_V209D] | 0.868 | 1.09 | 0.573 | 0.586 | 0.794 | 3.54 | 2.74 | 1.43 | 0.71 | 0.52 | 0.506 | 3.49 | 0.65 | 0.6 | 0.7 | 0.766
GESLTYASTTF [C1orf162_Y120] | 0.752 | 0.679 | 0.649 | 1.19 | 0.551 | 2.25 | 2.63 | 0.52 | 0.505 | 0.574 | 0.644 | 2.68 | 0.5 | 0.401 | 0.408 | 0.592
ENFDDYMKEVG [FABP4_Y20] | 1.04 | 0.791 | 0.802 | 0.707 | 1.22 | 0.496 | 0.539 | 0.687 | 1.06 | 0.396 | 0.623 | 0.527 | 0.579 | 0.569 | 0.699 | 1.23

Continued, in another order:

SH2 binding enrichment [1] | SH2 binding enrichment [2] | SH2 binding enrichment [3] | Sequence | phosphorylation enrichment [4] | phosphorylation enrichment [5] | phosphorylation enrichment [6] | phosphorylation enrichment [7] | phosphorylation enrichment [8] | phosphorylation enrichment [9] | phosphorylation enrichment [10] | phosphorylation enrichment [11] | phosphorylation enrichment [12] | phosphorylation enrichment [13] | phosphorylation enrichment [14] | phosphorylation enrichment [15] | phosphorylation enrichment [16]
1.05 | 0.734 | 0.738 | IVGRLYRLLTE [SETX_Y1978_L1976R] | 0.676 | 1.12 | 0.376 | 0.331 | 0.37 | 0.954 | 0.396 | 0.494 | 0.387 | 0.481 | 0.418 | 0.644 | 1.1
0.72 | 0.588 | 0.39 | RFVTRSIFNRE [HLA-DQB1_Y62_Y62S_YF] | 0.402 | 0.827 | 0.498 | 0.578 | 0.652 | 0.723 | 0.577 | 0.718 | 0.632 | 0.61 | 0.472 | 0.711 | 1.14
1.37 | 1.3 | 1.1 | SIRFNYLLDVL [FGFR4_Y237_YF] | 0.706 | 1.14 | 0.432 | 0.413 | 0.502 | 1 | 0.387 | 0.518 | 0.485 | 0.539 | 0.481 | 0.747 | 0.94
0.863 | 0.73 | 0.568 | KDHPDYEFQPR [SOX9_Y172_K173E_YF] | 0.509 | 0.723 | 0.448 | 0.425 | 0.475 | 0.665 | 0.319 | 0.585 | 0.504 | 1.05 | 0.712 | 0.614 | 1.81
0.953 | 0.719 | 0.64 | KTVQDYLEKFF [MMP8_Y36_YF] | 0.874 | 1.28 | 0.519 | 0.446 | 0.485 | 0.986 | 0.514 | 0.602 | 0.502 | 0.504 | 0.643 | 0.692 | 1.14
0.756 | 0.821 | 0.744 | LEHCQYVTEKV [ALDOB_Y204] | 1.18 | 2.85 | 1.59 | 0.822 | 1.91 | 1.68 | 1.04 | 1.55 | 0.839 | 1.74 | 1.6 | 1.91 | 1.83
1.05 | 0.888 | 0.637 | KNKNRYKNILP [PTPN11_Y279] | 0.877 | 1.03 | 0.644 | 0.941 | 0.703 | 0.984 | 0.799 | 0.665 | 0.851 | 0.601 | 0.598 | 0.889 | 0.78
0.79 | 0.503 | 1.08 | AMGAVYQAAAL [HYOU1_Y421] | 0.98 | 0.615 | 1.91 | 2.81 | 1.63 | 0.566 | 0.431 | 0.512 | 3.19 | 0.534 | 0.58 | 0.612 | 0.686
0.663 | 0.686 | 1.45 | VEKGSYSALLA [ABCC2_Y845] | 0.516 | 0.535 | 0.332 | 0.493 | 0.45 | 0.69 | 0.71 | 0.392 | 0.537 | 0.354 | 0.401 | 0.456 | 0.648
0.812 | 3.32 | 2.72 | HYGNNYTDVLQ [MACC1_Y803_R804T] | 2.17 | 1.76 | 0.635 | 0.816 | 2.53 | 1.35 | 0.935 | 1.45 | 1.12 | 5.63 | 1.14 | 1.05 | 1.59
0.731 | 0.813 | 0.466 | GIVEDYRPPFY [ACVRL1_Y421] | 0.735 | 0.942 | 0.49 | 0.434 | 0.457 | 0.831 | 0.406 | 0.502 | 0.427 | 0.522 | 0.445 | 0.633 | 0.981
0.742 | 0.389 | 0.444 | SVTCTHSPALN [TP53_Y126_Y126H] | 0.818 | 1.01 | 0.52 | 0.459 | 0.542 | 0.759 | 0.4 | 0.548 | 0.529 | 0.498 | 0.404 | 0.612 | 0.862
0.867 | 0.662 | 1.49 | ALEQKYWALGQ [MAP1A_Y1555] | 0.537 | 0.735 | 1.39 | 1.82 | 0.436 | 0.886 | 1.3 | 0.492 | 0.875 | 0.53 | 0.674 | 0.665 | 0.768
1.01 | 0.767 | 0.598 | DASENYFVMDS [TMEM240_Y77_T80M] | 0.677 | 1.1 | 0.392 | 0.569 | 0.732 | 0.952 | 1.92 | 4.43 | 0.457 | 6.62 | 8.76 | 7.01 | 1.91
0.684 | 0.445 | 0.591 | FGSVMYEFVGK [SLC18A1_Y251] | 1.3 | 1.76 | 2.57 | 3.48 | 15.1 | 1.38 | 11.1 | 3.28 | 8.76 | 5.8 | 1.35 | 1.35 | 2.6
1.36 | 0.654 | 0.341 | HRGHLYLAIEY [TEK_Y899_Y897H] | 0.599 | 1.56 | 0.447 | 0.344 | 0.741 | 0.977 | 0.495 | 1.16 | 0.572 | 1.08 | 0.942 | 1.23 | 1.51
1.29 | 1.07 | 1.13 | SVCPDYDLCSV [SQSTM1_Y148] | 0.98 | 1.3 | 0.689 | 0.87 | 1.89 | 1.3 | 0.524 | 0.959 | 0.678 | 0.788 | 0.661 | 0.901 | 1.65
